Molecular target: T1, SARS-CoV-2 RBD of the VOC Delta (Acro Biosystems SPD-C82Ed-25) (SARS-CoV-2, VOC Delta (B.1.617.2), strain)
T1 construct: source: bought: Acro Biosystems
Assay: SPR; Biacore 8K+, […]; 10 mM HEPES pH 7.4, 150 mM NaCl, 3 mM EDTA, 0.05% Tween 20; […]
Conditions: both partners purified

B1: MB025_A09Lgl (antibody, V domains shown)
VH: EVQLVESGGGLVQPGGSLRLSCAASGFTVSSNYMSWVRQAPGKGLEWVSVIYSGGSTYYADSVKGRFTISRHNSKNTLYLQMNSLRAEDTAVYYCARGVDYRTNRTEGGAFDIWGQGTMVTVSS
VL: QSALTQPASVSGSPGQSITISCTGTSSDVGSYNLVSWYQQHPGKAPKLMIYEGSKRPSGVSNRFSGSKSGNTASLTISGLQAEDEADYYCCSYAGSSTWMFGGGTKLTVL
**Q.** For B1, which Kd is on record?
**A.** 731 nM
